Reference: the supplement of paper PMC10567573

B1: TFE3 (parent)
chain: ELPNIKREISETEAKALLKERQKK

Variants of: B1
Experiment: protein stability index of a GFP-peptide fusion (GPS, HEK-293T) (PSI 1-6); higher = more stable
Details: c terminus: a fixed tail appended
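Also: lentivirally expressed fusions sorted by FACS into six bins by GFP to DsRed ratio, PSI derived from sequencing read proportions per bin multiplied by bin number.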

Variant	protein stability index
ELPNIKREISETEFKALLKERQKK [A14F]	2.83
ELPNIKREISETEYKALLKERQKK [A14Y]	2.49
ELPNIKREISETECKALLKERQKK [A14C]	2.48
ELPNIKREISETEEKALLKERQKK [A14E]	3.05
ELPNIKREISETEIKALLKERQKK [A14I]	2.46
ELPNIKREISETEDKALLKERQKK [A14D]	2.17
ELPNIKREISETENKALLKERQKK [A14N]	2.64
ELPNIKREISETEWKALLKERQKK [A14W]	2.69
ELPNIKREISETERKALLKERQKK [A14R]	2.51
ELPNIKREISETETKALLKERQKK [A14T]	2
ELPNIKREISETELKALLKERQKK [A14L]	2.54
ELPNIKREISETEHKALLKERQKK [A14H]	3.14
ELPNIKREISETEGKALLKERQKK [A14G]	3
ELPNIKREISETEPKALLKERQKK [A14P]	3.06
ELPNIKREISETEKKALLKERQKK [A14K]	2.75
ELPNIKREISETESKALLKERQKK [A14S]	2.22
ELPNIKREISETEMKALLKERQKK [A14M]	2.05
ELPNIKREISETEQKALLKERQKK [A14Q]	2.39
ELPNIKREISETEVKALLKERQKK [A14V]	2.45
ELPNIKHEISETEAKALLKERQKK [R7H]	3.27
ELPNIKAEISETEAKALLKERQKK [R7A]	2.55
ELPNIKCEISETEAKALLKERQKK [R7C]	2.97
ELPNIKTEISETEAKALLKERQKK [R7T]	3.51
ELPNIKMEISETEAKALLKERQKK [R7M]	2.63

Variant	protein stability index
ELPNIKKEISETEAKALLKERQKK [R7K]	2.44
ELPNIKLEISETEAKALLKERQKK [R7L]	2.68
ELPNIKIEISETEAKALLKERQKK [R7I]	3.2
ELPNIKNEISETEAKALLKERQKK [R7N]	2.58
ELPNIKEEISETEAKALLKERQKK [R7E]	2.46
ELPNIKPEISETEAKALLKERQKK [R7P]	4.86
ELPNIKDEISETEAKALLKERQKK [R7D]	2.95
ELPNIKWEISETEAKALLKERQKK [R7W]	2.84
ELPNIKVEISETEAKALLKERQKK [R7V]	2.46
ELPNIKGEISETEAKALLKERQKK [R7G]	2.2
ELPNIKYEISETEAKALLKERQKK [R7Y]	2.81
ELPNIKFEISETEAKALLKERQKK [R7F]	2.44
ELPNIKQEISETEAKALLKERQKK [R7Q]	2.4
ELPNIKSEISETEAKALLKERQKK [R7S]	2.49
ELPNIKREISETEAKDLLKERQKK [A16D]	4.48
ELPNIKREISETEAKELLKERQKK [A16E]	4.09
ELPNIKREISETEAKCLLKERQKK [A16C]	2.2
ELPNIKREIGETEAKALLKERQKK [S10G]	3
ELPNIKREIAETEAKALLKERQKK [S10A]	2.23
ELPNIKREIVETEAKALLKERQKK [S10V]	3.62
ELPNIKREIMETEAKALLKERQKK [S10M]	2.12
ELPNIKREIFETEAKALLKERQKK [S10F]	2.65
ELPNIKREITETEAKALLKERQKK [S10T]	2.59
ELPNIKREIIETEAKALLKERQKK [S10I]	3.13

Variant	protein stability index
ELPNIKREIPETEAKALLKERQKK [S10P]	4.98
ELPNIKREIRETEAKALLKERQKK [S10R]	2.91
ELPNIKREILETEAKALLKERQKK [S10L]	2.57
ELPNIKREIYETEAKALLKERQKK [S10Y]	2.35
ELPNIKREIKETEAKALLKERQKK [S10K]	3
ELPNIKREIHETEAKALLKERQKK [S10H]	2.82
ELPNIKREIQETEAKALLKERQKK [S10Q]	2.68
ELPNIKREIDETEAKALLKERQKK [S10D]	2.53
ELPNIKREINETEAKALLKERQKK [S10N]	3
ELPNIKREIWETEAKALLKERQKK [S10W]	2.9
ELPNIKREICETEAKALLKERQKK [S10C]	3.2
ELPNIKREIEETEAKALLKERQKK [S10E]	2.15
ELPNIKRRISETEAKALLKERQKK [E8R]	4.32
ELPNIKRVISETEAKALLKERQKK [E8V]	3.43
ELPNIKRTISETEAKALLKERQKK [E8T]	3.46
ELPNIKRPISETEAKALLKERQKK [E8P]	4.31
ELPNIKRQISETEAKALLKERQKK [E8Q]	3.34
ELPNIKRSISETEAKALLKERQKK [E8S]	3.69
ELPNIKRNISETEAKALLKERQKK [E8N]	3.46
ELPNIKRKISETEAKALLKERQKK [E8K]	4.06
ELPNIKRCISETEAKALLKERQKK [E8C]	3.4
ELPNIKRAISETEAKALLKERQKK [E8A]	2.49
ELPNIKRLISETEAKALLKERQKK [E8L]	3.6
ELPNIKRYISETEAKALLKERQKK [E8Y]	3.68

Variant	protein stability index
ELPNIKRGISETEAKALLKERQKK [E8G]	3.09
ELPNIKRFISETEAKALLKERQKK [E8F]	3.52
ELPNIKRWISETEAKALLKERQKK [E8W]	2.21
ELPNIKRIISETEAKALLKERQKK [E8I]	3.39
ELPNIKRHISETEAKALLKERQKK [E8H]	3.31
ELPNIKRDISETEAKALLKERQKK [E8D]	2.69
ELPNIKRMISETEAKALLKERQKK [E8M]	3.32
ELPNIKREISEHEAKALLKERQKK [T12H]	4.58
ELPNIKREISESEAKALLKERQKK [T12S]	2.69
ELPNIKREISEYEAKALLKERQKK [T12Y]	4.15
ELPNIKREISEKEAKALLKERQKK [T12K]	3.85
ELPNIKREISELEAKALLKERQKK [T12L]	4
ELPNIKREISEIEAKALLKERQKK [T12I]	4.13
ELPNIKREISEPEAKALLKERQKK [T12P]	4.73
ELPNIKREISEMEAKALLKERQKK [T12M]	4.26
ELPNIKREISEAEAKALLKERQKK [T12A]	2.86
ELPNIKREISENEAKALLKERQKK [T12N]	4.46
ELPNIKREISECEAKALLKERQKK [T12C]	2.51
ELPNIKREISEVEAKALLKERQKK [T12V]	4.04
ELPNIKREISEGEAKALLKERQKK [T12G]	4.73
ELPNIKREISEQEAKALLKERQKK [T12Q]	4.67
ELPNIKREISEEEAKALLKERQKK [T12E]	5.55
